experiment: yeast display, Sf9 membrane polyspecificity reagent, FACS + sequencing; frameworks hold sequencing errors
In short: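 In a synthetic yeast display library (Saccharomyces cerevisiae BJ5465), nanobody expression was induced with galactose for 36–48 hours. FACS gates were set low and high (top ~1%) using anti-HA fluorescence for expression and streptavidin fluorescence for binding of the Sf9 membrane reagent. Each polyreactivity label is drawn from the gate of origin.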

Sequence | polyreactivity (PSR sort gate)
QVQLVESGGGLVHAGGSLRLSCAASGSISTRNAMGWYRQAPGKDRELVASITSGGSTYYADSVKGRFTISRDNAKNTVYLQMNSLKPEDTAVYYCAARRRRPWGYGYGYWGQGTQVTVSS | high polyreactivity
QVQLVESGGGLVQAGGSLRISCAASGIIFDTNAMGWYRQAPGKERELVATITQRGGTTYYADSVKGRFTISRDNAKNTVYLQMNSLKPEDTAVYYCAKDYWFGYEYWGQGTQVTVSS | low polyreactivity
QVQLVESGGGLVQAGGSLRISCAASGITFSYYAMGWYTPAPGKERELVAAINSGGGSTYYADSVKGRFTISRDNAKNTVYLQMNSLKPEDTAVYYCSARYRSRYDYYYDRDYWGQGTQVTVSS | low polyreactivity
QVQLVESGGGLVQAGGSLRLSCAASGSTITYYAMGWYRQAPGKERELVAAISGSGRTHYADSVKGRFTISRDNAKNTVYLQMNSLKPEDTAVYDCNARQYTYNYAFTRCKYDYWGQGTQVTVSS | high polyreactivity
QVQLVESGGGLVQAGCSLRLSCDASGSIFTWYAIGWYRQAPGKERELVAAITRGGSTYADSVKGRFTISRDNAKNNVYLQMNSLKPEDSAVYYCAARRVPIRVGGYPYYYWGQGSQVTVSS | low polyreactivity
QVQLVESGGGLVQAGGSLRLSCAASGITFAFYAMGWYRQAPGKERELVAAISWSGTRTYYADSVKGRFTISRDNAKNTVYLQMNSLKPEDSAVYYCAADYQAGDKLYDYWGQGTQVTVSS | low polyreactivity
QVQLVESGGGLVQAGGSLRLSCAASGRPFVGNVMGWYRQAPGKERELVDAITRTAGSTYYADSVKGRFTISRDNAKNTVYLEMNSLKPEDTAVDYCAVEGIYRWYDYSWYYTSTYDYWGQGTQVTVSS | low polyreactivity
QVQLVESGGGLVQAGGSLRLSCAASGSILNAYAMGWYRQAPGKERELVAAITGSDGSTYYADSVKGRFTISRDNAKNTVYLQMNSLKPEDTAVYYCNADYSQPVYWWLDDYWGHGTQVTVSS | low polyreactivity
QVQLVESGGGLVQAGGRLRLSSAASGRTFFGSYAMGWYRQAPGKERELVADIRSGGNTNYADSVKGRFTISRDNAKNTVYLQMNRLKPDDTAVYYCASDGYSIVVYHPDYRYVYWGQGTQLTVSS | low polyreactivity
QVQLVESGGGLVQAGGSLRLSCAASGRIFAYYAMGWYRQAPGKERELVAAINTSGATTNYADSVKGRFTISRDKAKNTVYLQMNSLKPEDTAVYYCAAWKGVYTYNYWGQGTQVTVSS | high polyreactivity
QVQLVESGGGLVQAGGSLRLSCAASGRIPAYAMGWYRQAPWKERELVAAITWSGGSTYYADSVKGRFTISRDNAKNTVYLQMISLKPEDTSVDYCAAKQWGRYGYWGKGTQVTVSS | high polyreactivity
QVQLVESGGGLVQAGGSLRLSCAASGRIFVTYAMGLYRQAPGKERELVAVISWSGGSTYYADSVKGRFTISRDNAKNTVYLQMNSLKPEDTAVYYCARGLRKVRFDYWGQGTQVTVSS | low polyreactivity
QVQLVESGGGLVQAGGSLRLSCAASGRTFPVNVMGWYRQAPGKERELVAAITWSGDSTYYADSVKGRFTISRDNAKNTVYLQMNSVKPEDTAVYYCATDYSGLRYDYWGQGTQVTVSS | low polyreactivity
QVQLVESGGGLVQAGGSLRISCAASGYIFGTYAMGWYRQAPGKERELVAAISSTGRTYYADSVKGRFTISLDNAMNNVYLQMNRLKPEYTAVYYCAADVRTPSEGYDYWGQGTQVTVSS | high polyreactivity
QVQLVESGGGLVQAGGSLRLTCAASGNTFDYYAMGWYRQAPGKERELVAAITRGGSTNYADSVKGRFTISRDNAKNTVYLQMNSLKPEDTAVYYCAAEQRAPRFADYDYWGQGTQVTVSS | low polyreactivity
KVQLVESGGGLVQAGGRLRISCAASGRICYSNVMGWSRQAPGKERELVAAIFSGGSTYYADSVKGRFTISRDNAKNTVYLQMNSLKPEDTAVYDCAADYYYPFDYWGQGTQVTVSS | low polyreactivity
QVQLVESGGGLVQAGGSLRLSCAASGITFGRNAMGWSRQAPGKERELVAAISRGGSTNYADSVKGRFTISRDNAKNTVYLQMTRLKPEDTAVYYCATAYRGRAWGYDYWGQGTQVTVSS | high polyreactivity
QVQLVESGGGLVQAGGSLRLSCAASGSIFEPYVMGWYRQAPGKERELVAAIRQTGGSTYYADSVKGRFTISRDNAKNTVYLQMNSLKPEDTAVYYCAAVYLYYSRSDLYDYWGQGTQVTVSS | low polyreactivity
QVQLQESGGGLVQAGGSLRLSCAASGSIARYYDMGWYLQAPGKEREFVAGISGGAISYYADSVKGRLTISRDNAKNTVYLQMNSLKPEDTAVYYCAADTCVYQYHSYWGQGTQVTVSS | low polyreactivity
QVQLVESGGGLVQAGGSLRLSCAASGIIFRGNAMGWYRQAHGKERELVAAISSAGSTNYADSVKGRFTISRDNAKNTVYLQMNSLKPEVTAVFYCAKGSIKYHVTLRGRGYYWGQGTQVTVSS | low polyreactivity
QVQLVESGGGLVQAGGSLRLSCAASGFTFYRYAMGWYRPAPGKERELVAAISKSGGTTFYADSVKGRFTISRDNAKNTVYLQMNSLKPEDTEVYYCAVDVPYVQSYIPDPPNVYYWGQGTQVTVSS | high polyreactivity
QDQLVESGAGLVQAGGSLRLSCAASGSTFGIYAMGWSRQAPGKEREFVAAISRSGSSTYYADSVKGRFTISRDNAKNTVYLQMNSLKPEDTAVYYCAAVVRYSQAGYYYWGQGTHVTVSS | high polyreactivity

Sequence | polyreactivity (PSR sort gate)
QVQLVESGGGLVQAGGSLRLSCAASGRILSLYAMGWNRQAPGKERELVASINWSDGSTYYADSVKGRFTISRDNAKNTVYLQMNSLKPEDTAVYYCTVDVRSYVAGYDYWGQGTQVTVSS | low polyreactivity
QVQLVESGGGLVQAGGSLRLSCAASGRIFQYNAMGWYRQAPGKERELVAAISNSDSTNYADSVKGRFTISRDNAKNTDYLQLNRVKPEDTAVYYCARRYYFYRWVIPDYDYWGQGTQVTVSS | low polyreactivity
QVQLVESGGGLVQAGGSLRLSCAASGRIFSFNAMGWYRQAPGKERELVAGITDSGGSTYYADSVKGRFTISRDNAKNTVYFQMNSLKPEDTAVYYCNAEWPYSRVREYFYAYDYWGQGTQVTVSS | low polyreactivity
QVQLVESGGVLVQAGGSLRLSCAASGLTFDPNAMGWYRQAPGKERELVATITQTDGSTYYADSVKGRFTISRDNAKNTVYLQMNSLKPEDTAVYYCDGLVSRGSDYWGQGTQVTVSS | low polyreactivity
QVQLVESGGGLVQAGGSLRLSCAASGITFASYAMGWYRQAPGKERELVAAISTRSGGTYYADSVKGRFTISRDNAKNTVYLQMNSLKPEETAVYYCAAYNVIYTRRMYYWGQGTQVTVSS | high polyreactivity
QVQLVESGGGLVQAGCSLRLSCAASGFIFSRYTMGWYRQAPGKERELVAAISRRGGNTYYADSVKGRFTISRDNAKNTVYLQMNSLKPEDTAVYYCADEYNQSFDYWGQGTQVTVSS | low polyreactivity
QVQLVDSGGGLVQAGGSLRLSCAASGFNFASYALGWYRPAPGKERELVAAISQSGGRTYYADSVKGRFTISRDNANNTVYLQMNSLKPEDTAVYYCAAPSYRYIYYSPGTGLGYWGQGTQVTVSS | high polyreactivity
QVQLVESGGGLVQAGGSLRLSCDASGRTFGLNAMGWYRQAPGKERDLVAAISSSGGSTYYADSVKWRFTISRDNAKNTVYLQMNRLKPEDNAVYYCAKVLYRYGNDYYYWGQGTQVTVSS | high polyreactivity
QVQLVESGGRLVQAGGSLRLSCAASGLTLFRYAKGWYRTAPGKERELVAAIDYGGGTYYADSVKGRFTISRDNAKNTVYLQMNSLKPEDTAVYYCAVEPEYKYYEGDYWGQGTQVTVSS | low polyreactivity
QVQLVESGGGFVQAGGRLRLSCAASGRTFKYYAMGWYRPAPGKDRELVAAISRGGSTNYADSVKGRFTISRDNAKNTVYLQLTSLNPEDTAVYYCAADQVTDYWWRGYEYWGQGTQVTVSS | low polyreactivity
QVQLVESGGGLVQAGGSLRLSCAASGRTFYAYAMGWYRQAPGKERELVAAISWRGGDTYYADSVKGRFTISRDNAKNTVELQMNSLKPEDTAVYYCAKDLSRQSGDGEYDYWGQGTQVTVSS | low polyreactivity
QVQHVESGGGLVQAGGSLRLSCAASGFTFRHNAMGWYRQAPGKERELVAAMTKSGRRTYDADSVKGRFTISRDNAKNTVYLQMNSLKPEDTAVYYCKKDLRQSYANVDYWGQGTQVTVSS | high polyreactivity
QVQLVESGGGLVQAGGSLRLSCAASGSTFGYYTMGWYSQAPGKEWELVAAITWSGGSTYYADSVKGRFTISRDNAKNTASLQMNSLKPEDTAVYYCNTDQDLVRSYDYWGQGTQVTVSS | low polyreactivity
QVQLVESGGGLVQAGGSLRLSCAASGSIFTYNTMGWYRQAPGKERELVAAISGRGGRTYYADSVKGRFTISRDNAKKTVYLQMNSLKPEDTAVYYCNARKYSQKIYGNYNYWGQGTQVTVSS | high polyreactivity
QVQLVESGGGLVQAGGSLRLSCAASGYTFTGNAMGWYRQAPGKERELVARITSVGRTYYADSVKGRFTISRDNAKNTVYLQMNSLKPEDTAVYYCAAQPYRYRYWPRVGGYDYWGQGTQVTVTS | high polyreactivity
QVQLVESGGGLVQAGGSLRFSCAASGRTLVYNGMGWYRPAPGKERELVAAITTDGGDTYYADSVKGRFTISRDNAKNTVYLQMDSLKPEDTAVYYCAADYVALYYWYDYWGQGTQVTVSS | low polyreactivity
QVQLVESGGGLVQAGGSLRLSCAASGGPFYTYTMGWYRQAPGKERELVAAISFSDASTYYADSVKGRFTISRDNAKNTVFLQMNSLKPEDTGVYYCNAGVLQWVYYPFDYWGQGTQVTVSS | low polyreactivity
QVQLVESGGGLVQAGGSLRLSCAASGRIFYQYVMGWYRQAPGKDRELVAAISRRGGSTYYADSVKGRFTISRDNAKNTVYLQMNSLKPEDTAVYYCAARRRYRRHRYDYWGQGTQVTVSS | high polyreactivity
QVQLVESGGGLVQAGGSLRLSCAASVRIFGSNVMGWYRQAPGKERELVASISSGGTTYYADSVKGLFTISRDNAKNTVYLQMNSLKPEDTAGYYCAKQWTRIYQYRWYPGTRTGYDYWGHGTQVTVSS | high polyreactivity
QVQLVESGGGLVQAGGSLRLSCAASGITFGYYAMGWSRQAAGKEWELVAAISSGGGTYYADSVKGRFTISRDNAKNTVYLQMNSLKPEDTAVYYCNVLRLYPSMDYWGHGTQVTVSS | high polyreactivity
QVQLVESGGGLVQAGGSLRLSSAASGRTFEVYAMGWYRQAPGKERELVATITYSGGITYYADSVKGRFTISRDNAKNTVYLQMNSLKPEDTAVYYPIGVGGDYDYWGQGTQVTVSS | low polyreactivity

— the nanobody polyreactivity screen of Harvey et al. (2022)
